From patent US20140271651A1 come the findings set out here.

Test [1] deals with GP73-hFc (human GP73 amino acids 63 to 400 fused at the C-terminus to human IgG1 Fc) (human). In words: sandwich EIA on GP73-hFc, coated NC, second antibody 1B-3246-Bt.
Test [2] has the same target. As to the kind of experiment: sandwich EIA on GP73-hFc, coated 1B-4863, second antibody NC-Bt.
For test [3] the target is unchanged. As to the kind of experiment: sandwich EIA on GP73-hFc, coated 1B-4971, second antibody NC-Bt.
Test [4] has the same target. In words: sandwich EIA on GP73-hFc, coated NC, second antibody 1B-4863-Bt.
For test [5] the target is unchanged. As to the kind of experiment: sandwich EIA on GP73-hFc, coated NC, second antibody NC-Bt.
Test [6] shares this target. In words: sandwich EIA on GP73-hFc, coated 1A-4246, second antibody NC-Bt.
The target is the same in test [7]. As to the kind of experiment: sandwich EIA on GP73-hFc, coated NC, second antibody 1B-3440-Bt.
Test [8] has the same target. In words: sandwich EIA on GP73-hFc, coated 1B-3440, second antibody NC-Bt.
Test [9] shares this target. As to the kind of experiment: sandwich EIA on GP73-hFc, coated 1B-3246, second antibody NC-Bt.
Test [10] shares this target. As to the kind of experiment: sandwich EIA on GP73-hFc, coated NC, second antibody 1A-3187-Bt.
For test [11] the target is unchanged. As to the kind of experiment: sandwich EIA on GP73-hFc, coated NC, second antibody 1A-4246-Bt.
Test [12] has the same target. As to the kind of experiment: sandwich EIA on GP73-hFc, coated NC, second antibody 1B-4971-Bt.
The target is the same in test [13]. In words: sandwich EIA on GP73-hFc, coated 1A-3187, second antibody NC-Bt.

GP73-hFc (human GP73 amino acids 63 to 400 fused at the C-terminus to human IgG1 Fc) (human), sequence (chain, as listed by the source limits assumed): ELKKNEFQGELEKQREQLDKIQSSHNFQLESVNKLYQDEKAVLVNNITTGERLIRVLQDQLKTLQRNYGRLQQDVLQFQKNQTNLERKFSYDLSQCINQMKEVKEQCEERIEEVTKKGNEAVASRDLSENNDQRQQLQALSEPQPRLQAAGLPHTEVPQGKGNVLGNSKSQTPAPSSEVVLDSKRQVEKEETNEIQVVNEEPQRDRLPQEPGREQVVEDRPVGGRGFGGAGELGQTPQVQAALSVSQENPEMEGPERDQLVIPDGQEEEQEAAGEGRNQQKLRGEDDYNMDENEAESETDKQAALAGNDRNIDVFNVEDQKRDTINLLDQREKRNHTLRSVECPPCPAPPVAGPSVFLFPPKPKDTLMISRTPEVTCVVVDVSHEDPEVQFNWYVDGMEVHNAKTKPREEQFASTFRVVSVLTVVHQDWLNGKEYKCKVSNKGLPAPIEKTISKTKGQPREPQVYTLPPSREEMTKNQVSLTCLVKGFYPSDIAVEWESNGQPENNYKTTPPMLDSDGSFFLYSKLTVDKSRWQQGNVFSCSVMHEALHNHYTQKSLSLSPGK

Turning to negative control monoclonal antibody, the sandwich assay signal (A492) in test [1] came to 0.05 A492; in test [2], 0.06 A492; in [3], 0.06 A492; in test [4], 0.05 A492; in [5] it was 0.06 A492; in test [6], 0.08 A492. Further, the sandwich assay signal (A492) in test [7] came to 0.05 A492; in test [8] it was 3.07 A492; in [9], 0.06 A492; in test [10], 0.09 A492; in [11], 0.05 A492; in [12] it was 0.06 A492. Moreover, the sandwich assay signal (A492) in test [13] stood at 0.06 A492.
